Article PMC11272775, “Epigenetic memory is governed by an effector recruitment specificity toggle in Heterochromatin Protein 1” (Nature Communications, 2024)
Substitutions are numbered along the chain they refer to. Names may count otherwise. Values belong to the molecule of their own block, whether it stands above or below them.

Legend:
[1] = tested on: Swi6-WT (Schizosaccharomyces pombe); assay: EMSA; details: 20 mM Hepes pH 7.5, 4 mM Tris, 80 mM KCl, 0.1% Igepal CA-630, 0.2 mM EDTA, 2 mM DTT, 10% glycerol, 10 nM mononucleosome, 30 °C 45 min, 6% acrylamide 0.5x TBE …
[2] = biological target: the molecule itself; assay: mass photometry; full-length recombinant Swi6 at 2.5-20 nM in 20 mM HEPES pH 7.5, 100 mM KCl; apparent dimerization constants (Kdim) from the relative abundance of monomer and dimer; dimer to monomers
H3K9me3 mononucleosomes = assay: native gel or EMSA; Swi6 varied, 10 nM mononucleosomes; 20 mM Hepes pH 7.5, 4 mM tris, 80 mM KCl, 0.1% Igepal CA-630, 0.2 mM EDTA, 2 mM DTT, 10% glycerol; 30 °C for 45 min; unbound nucleosome band quantified; apparent K1/2
MBP-Epe1 = biological target: T1, MBP-Epe1 (S. pombe, UniProt O94603 1-948); assay: pull-down; recombinant 3X FLAG-Swi6 immobilised on FLAG M2 beads, three concentrations of recombinant MBP-Epe1; 20 mM HEPES pH 7.5, 150 mM NaCl, 5 mM MgCl2, 10% glycerol, 0.25% Triton X-100, 1 mM DTT; 2 h at 4 °C; blots with anti-MBP and M2 Flag antibodies; details: both partners purified
T1 construct: Epe1, S. pombe, full-length; also called MBP-His-TEV-Epe1; recombinant MBP-Epe1 fusion protein; source: Hi5 cells infected with baculovirus, purified (amylose resin, Superdex 200); not shown: MBP, N-terminal, kept
T1 sequence (looked up): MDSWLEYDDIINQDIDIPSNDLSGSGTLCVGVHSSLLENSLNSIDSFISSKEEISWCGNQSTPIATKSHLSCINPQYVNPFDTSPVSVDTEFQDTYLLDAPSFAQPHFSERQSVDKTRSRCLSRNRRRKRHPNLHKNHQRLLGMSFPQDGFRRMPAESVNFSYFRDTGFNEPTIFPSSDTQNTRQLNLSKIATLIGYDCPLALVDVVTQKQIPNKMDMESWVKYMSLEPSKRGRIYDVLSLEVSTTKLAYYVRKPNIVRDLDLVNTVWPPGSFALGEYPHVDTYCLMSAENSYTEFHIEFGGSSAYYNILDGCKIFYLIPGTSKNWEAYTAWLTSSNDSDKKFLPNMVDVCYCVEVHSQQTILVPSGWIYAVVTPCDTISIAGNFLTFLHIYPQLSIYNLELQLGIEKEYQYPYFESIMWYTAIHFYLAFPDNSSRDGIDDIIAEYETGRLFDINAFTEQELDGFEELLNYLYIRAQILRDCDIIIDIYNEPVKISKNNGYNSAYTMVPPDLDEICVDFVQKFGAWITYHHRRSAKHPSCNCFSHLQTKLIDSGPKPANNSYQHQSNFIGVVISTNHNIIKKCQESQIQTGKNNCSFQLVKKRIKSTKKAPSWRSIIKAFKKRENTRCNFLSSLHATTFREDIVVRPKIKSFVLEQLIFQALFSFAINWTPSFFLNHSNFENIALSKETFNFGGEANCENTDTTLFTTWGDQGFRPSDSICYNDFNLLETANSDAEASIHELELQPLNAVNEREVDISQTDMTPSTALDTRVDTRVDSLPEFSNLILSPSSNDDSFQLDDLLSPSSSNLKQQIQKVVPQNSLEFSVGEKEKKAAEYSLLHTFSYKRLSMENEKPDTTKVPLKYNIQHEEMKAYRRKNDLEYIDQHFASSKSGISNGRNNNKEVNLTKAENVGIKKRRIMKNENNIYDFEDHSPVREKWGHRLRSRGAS

Molecule: H3K9me0 mononucleosome
binding signal (fold weaker than H3K9me3) ([1]; H3K9me0 histone, unmodified H3 (H3K9me0)): 2.4

Molecule: H3K9me3 mononucleosome
K half ([1]; H3K9me3 histone, histone H3K9me3 (DNA unmodified)): 50 nM

apparent K1/2 (H3K9me3 mononucleosomes): 50 nM
specificity for H3K9me3 over H3K9me0 mononucleosomes (H3K9me3 mononucleosomes): 2.4 fold
B1: Swi6-WT (recombinant, full-length) (natural protein, S. pombe, UniProt P40381 1-328, looked up)
chain: MKKGGVRSYRRSSTSKRSVIDDDSEPELPSMTKEAIASHKADSGSSDNEVESDHESKSSSKKLKENAKEEEGGEEEEEDEYVVEKVLKHRMARKGGGYEYLLKWEGYDDPSDNTWSSEADCSGCKQLIEAYWNEHGGRPEPSKRKRTARPKKPEAKEPSPKSRKTDEDKHDKDSNEKIEDVNEKTIKFADKSQEEFNENGPPSGQPNGHIESDNESKSPSQKESNESEDIQIAETPSNVTPKKKPSPEVPKLPDNRELTVKQVENYDSWEDLVSSIDTIERKDDGTLEIYLTWKNGAISHHPSTITNKKCPQKMLQFYESHLTFRENE
notes: Swi6, HP1 homolog of S. pombe; MW 37,292.6 g/mol; source: E. coli BL21(DE3)-RIPL, purified (Ni-NTA, anion exchange, SEC); not shown: 6XHis, N-terminal, cleaved
Kd [2]: 0.38 nM
stoichiometry N [2]: 2

binding result (MBP-Epe1): binds
B2: 3X FLAG-Swi6-WT (recombinant) (natural protein, S. pombe, UniProt P40381 1-328, looked up)
chain: B1 chain
notes: Swi6, HP1 homolog of S. pombe; source: E. coli BL21(DE3)-RIPL, purified (recombinant); not shown: 6XHis, N-terminal, cleaved

B3: Swi6-T278K (recombinant, full-length) (natural protein, S. pombe, UniProt P40381 1-328, looked up)
chain: B1 chain with T278K
notes: Swi6, HP1 homolog of S. pombe, with T278K; MW 37,319.7 g/mol; also called Swi6-K; source: E. coli BL21(DE3)-RIPL, purified (Ni-NTA, anion exchange, SEC); not shown: 6XHis, N-terminal, cleaved
Kd [2]: 0.2 nM
stoichiometry N [2]: 2

apparent K1/2 (H3K9me3 mononucleosomes): 39 nM
specificity for H3K9me3 over H3K9me0 mononucleosomes (H3K9me3 mononucleosomes): 2.3 fold
B4: Swi6-T278Y (recombinant, full-length) (natural protein, S. pombe, UniProt P40381 1-328, looked up)
chain: B1 chain with T278Y
notes: Swi6, HP1 homolog of S. pombe, with T278Y; MW 37,354.7 g/mol; also called Swi6-Y; source: E. coli BL21(DE3)-RIPL, purified (Ni-NTA, anion exchange, SEC); not shown: 6XHis, N-terminal, cleaved
Kd [2]: 0.27 nM
stoichiometry N [2]: 2
